According to patent US20050163770A1 (CONNEX, published 2005):
Ends that are not written are not given here.

Columns and labels:
[1] = target: T1, zeta-peptide-BSA-conjugate (not fully specified (residue 11); also: C-terminal Cys thiol coupled to BSA); assay: ELISA of rat hybridoma supernatants (diluted 1:1) on immobilized zeta-peptide-BSA-conjugate
T1 construct: also called zeta-peptide conjugated to bovine serum albumin
T1 peptide: QSFGLLDPKLC

[2] = target: T2, native zeta-chain from the lysate of CD8+ T-lymphocytes (human, UniProt P20963 22-164); assay: sandwich ELISA: zeta-chain from lysate captured by the antibody to amino acids 144-163, 2-B-5 at 1 ug/ml
T2 construct: Endogenous protein in a detergent lysate, captured on the plate by an antibody to the C-terminus; also called zeta-chain molecules from the T-cell lysate
T2 sequence (P20963 22-164 limits assumed): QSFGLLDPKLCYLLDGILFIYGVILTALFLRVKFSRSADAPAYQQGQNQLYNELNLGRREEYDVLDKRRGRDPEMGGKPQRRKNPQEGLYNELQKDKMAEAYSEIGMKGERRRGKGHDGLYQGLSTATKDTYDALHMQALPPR
Procedure: FIG. 4: Results of a Sandwich-ELISA confirming the reactivity of antibody 2-B-5 with native zeta-chain present in the lysate of the CD8⁺-T-cell lymphocytes. A zeta-chain specific antibody, which recognizes the amino acids 144-163 at the carboxy-terminus of the human zeta chain was coated for 12 hours to the wells of a 96 U-bottom plate, followed by blockade for one hour at room temperature with PBS/3% BSA. Subsequently the lysate of CD8⁺-cells was added undiluted and in several dilutions and incubated for one hour at room temperature. As negative control, the wells were incubated with PBS instead of the cell lysate. […] Bound 2-B-5 antibody was detected with a biotinylated mouse-anti-rat IgM antibody followed by an Avidin-peroxidase-conjugate. […] The colored precipitate was measured at 405 nm using an ELISA-reader.
A zeta-chain specific antibody (Santa Cruz Biotechnology, Cat-No 1124), which recognizes the amino acids 144-163 at the carboxy-terminus of the zeta chain was coated to wells of a 96 U-bottom plate (Nunc, maxisorb) at a concentration of 5 μg/ml. […] Bound 2-B-5 antibody was detected with a biotinylated mouse-anti-rat IgM antibody (Zymed, San Francisco, Calif., USA; Cat-No 03-9840; working concentration 400 ng/ml) followed by an Avidin-peroxidase-conjugate (Dako, Hamburg; Code-No P 03347; working concentration 1 μg/ml). […]

[3] = target: T3, human zeta-chain on the surface of CD8+ T-lymphocytes and NK-cells (human, UniProt P20963 22-164); assay: flow cytometry on human PBMC gated for CD8+ T-lymphocytes and NK-cells
T3 construct: whole, on cells; also called extracellular domain of the human zeta-chain on intact cells
T3 sequence (P20963 22-164): as the sequence (P20963 22-164 limits assumed) above
Procedure: FIG. 3: Flowcytometry-analysis of the zeta-chain specific binding activity of the 2-B-5 antibody on the surface of CD8⁺-T-lymphocytes and NK-cells. 100.000 mononucleated cells from peripheral blood of two different healthy donors were incubated with undiluted cell culture supernatant of the 2-B-5 hybridoma. Bound zeta-chain specific rat antibody was detected by a fluorescein (FITC) conjugated goat-anti-rat Ig (IgG+IgM) antibody diluted 1:100 in PBS. Triple color fluorescence analysis was carried out by applying a positive gate for CD8⁺ (Tricolor) and a negative gate for CD16⁺ (PE) cells thus allowing the detection of FITC-mediated fluorescence (filled lines) exclusively attributed to CD8⁺-T-lymphocytes (phenotype: CD8⁺, CD16⁻) without any contaminating signals from CD8⁺-NK-cells. Similarly, triple color fluorescence analysis was carried out by applying a positive gate for CD56⁺-(PE) and a negative gate for CD3⁺-cells (tricolor) thus allowing the detection of FITC-mediated fluorescence (filled lines) exclusively attributed to NK-cells (phenotype: CD56⁺, CD3⁻) without any contaminating signals from CD56⁺-T-lymphocytes. As isotype control (broken lines) culture supernatant of an antibody with the same isotype (rat IgM) but irrelevant specificity was used. […] Cells were analyzed by flowcytometry on a FACS-scan (Becton Dickinson).

Measured: binding result

B1: rat monoclonal anti-zeta-chain antibody 2-B-5 (rat IgM) (antibody, V domains shown)
VH: QVQLQQSGAELVKPGSSVKISCKASGYTFTSYDMHWIKQQPGNGLEWIGWIYPGNGNTKYNQKFNGKATLTADKSSSTAYMQLSSLTSEDSAVYFCARDWHYYSSYIRPFAYWGQGTLVTVSS
VL: DIQMTQSPASLSASPEEIVTITCQASQDIGNWLAWYQQKPGKSPQLLIYSATSLADGIPSRFSGSRSGTQYSLKISRLQVEDTGIYYCLQRYSNPNTFGAGTKLELK
notes: Rat IgM with kappa light chain; Used as hybridoma culture supernatant or purified by ion exchange chromatography; The constant regions are rat mu and kappa; also called 2-B-S; 2-B-5 hybridoma antibody
binds: all assays above
